From patent publication US20230322953A1 (HARBOUR BIOMED SHANGHAI, published 2023)
Read-outs that look alike come from different tables or passages of the source.

Legend:
[1] = biological target: T1, human BCMA on NCI-H929 cells (ATCC, CRL-9068) (human, UniProt Q02223 1-184); assay: cell-based or functional assay
T1 sequence (looked up): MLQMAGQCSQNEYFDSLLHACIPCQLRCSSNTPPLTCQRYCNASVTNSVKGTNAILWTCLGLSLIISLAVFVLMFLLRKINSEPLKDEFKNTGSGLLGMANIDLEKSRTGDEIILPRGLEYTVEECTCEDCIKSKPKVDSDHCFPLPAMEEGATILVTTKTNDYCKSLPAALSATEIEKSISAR

[2] = biological target: T2, cynomolgus monkey BCMA (ACRO Biosystems, #BCA-C82F4) (cynomolgus monkey, UniProt A0A2K5UD97 1-53); assay: BLI (Octet Red96e), cyBCMA.Fc
T2 construct: Bought protein; also called cyBCMA.Fc
T2 sequence (A0A2K5UD97 entry or part of it): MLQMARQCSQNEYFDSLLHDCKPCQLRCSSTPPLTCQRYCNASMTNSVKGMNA

[3] = biological target: T1, human BCMA on NCI-H929 cells (ATCC, …); assay: cell-based or functional assay; remark: listed apart in the source
[4] = biological target: T1, human BCMA on NCI-H929 cells (ATCC, …); assay: cell-based or functional assay; remark: listed apart in the source
[5] = biological target: T3, human CD3 (TCR/CD3 complex) on human T cells (human, UniProt P07766 23-207); assay: flow cytometry (FACS) on human T cells, Experiment 3
T3 construct: whole, on cells
T3 sequence (P07766 23-207, one chain of several): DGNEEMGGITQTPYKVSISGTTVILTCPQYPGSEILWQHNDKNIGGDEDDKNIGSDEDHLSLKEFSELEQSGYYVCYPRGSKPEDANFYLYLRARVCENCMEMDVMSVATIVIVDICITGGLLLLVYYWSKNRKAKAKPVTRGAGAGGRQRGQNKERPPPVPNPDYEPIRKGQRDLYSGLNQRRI

[6] = biological target: T1, human BCMA on NCI-H929 cells (ATCC, …); assay: cell-based or functional assay; remark: listed apart in the source
[7] = biological target: T4, cynomolgus monkey CD3 (TCR/CD3 complex) on cynomolgus monkey T cells (cynomolgus monkey); assay: flow cytometry (FACS) on cynomolgus monkey T cells
T4 construct: whole, on cells
T4 sequence (Q95LI5 22-198, one chain of several): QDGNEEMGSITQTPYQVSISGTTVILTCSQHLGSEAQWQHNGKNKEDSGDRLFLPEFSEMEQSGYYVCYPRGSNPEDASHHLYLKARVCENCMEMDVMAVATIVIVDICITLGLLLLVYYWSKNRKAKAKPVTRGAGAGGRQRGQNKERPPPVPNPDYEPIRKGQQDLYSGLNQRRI

[8] = biological target: T5, biotinylated human BCMA-Fc, Avitag recombinant protein (ACRO Biosystems, #BC7-H82F0) (human, UniProt Q02223 1-54, biotinylated (Avitag)); assay: BLI (Octet Red96e), biotinylated BCMA-Fc on SA sensor, 1:1 global fitting;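 further: Anti-BCMA antibodies analysed as binding partners of the captured BCMA antigen, with reference signals removed by double referencing before kinetic fitting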
T5 construct: extracellular domain; Bought protein; also called huBCMA.Fc; recombinant human BCMA-ECD-Fc
T5 sequence (looked up): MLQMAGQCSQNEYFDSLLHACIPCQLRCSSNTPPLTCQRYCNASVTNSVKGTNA

B1: PR002199, BCMA × CD3 bispecific antibody derived from WO2019133761A1 (bispecific antibody, human IgG1, kappa, L234A L235A)
chain 1: not shown
chain 2: EVQLVESGGGLVQPGRSLRLSCAASGFTFDDYAMHWVRQAPGKGLEWVSGISWNSGSIGYADSVKGRFTISRDNAKNSLYLQMNSLRAEDTALYYCAKDSRGYGDYRLGGAYWGQGTLVTVSSASTKGPSVFPLAPSSKSTSGGTAALGCLVKDYFPEPVTVSWNSGALTSGVHTFPAVLQSSGLYSLSSVVTVPSSSLGTQTYICNVNHKPSNTKVDKKVEPKSCDKTHTCPPCPAPEAAGGPSVFLFPPKPKDTLMISRTPEVTCVVVDVSHEDPEVKFNWYVDGVEVHNAKTKPREEQYNSTYRVVSVLTVLHQDWLNGKEYKCKVSNKALGAPIEKTISKAKGQPREPQVYTLPPCREEMTKNQVSLWCLVKGFYPSDIAVEWESNGQPENNYKTTPPVLDSDGSFFLYSKLTVDKSRWQQGNVFSCSVMHEALHNHYTQKSLSLSPGK
chain 3: EVQLLESGGGLVQPGGSLRLSCAASGFTVSSYGMSWVRQAPGKGPEWVSGIRGSDGSTYYADSVKGRFTISRDNSKNTLYLQMNSLRAEDTAVYYCAKQGENDGPFDHRGQGTLVTVSSGGGGSEVQLLESGGGLVQPGGSLRLSCAASGFTVSSYGMSWVRQAPGKGPEWVSGIRGSDGSTYYADSVKGRFTISRDNSKNTLYLQMNSLRAEDTAVYYCAKQGENDGPFDHRGQGTLVTVSSASEPKSSDKTHTCPPCPAPEAAGGPSVFLFPPKPKDTLMISRTPEVTCVVVDVSHEDPEVKFNWYVDGVEVHNAKTKPREEQYNSTYRVVSVLTVLHQDWLNGKEYKCKVSNKALGAPIEKTISKAKGQPREPQVCTLPPSREEMTKNQVSLSCAVKGFYPSDIAVEWESNGQPENNYKTTPPVLDSDGSFFLVSKLTVDKSRWQQGNVFSCSVMHEALHNHYTQKSLSLSPGK
notes: Three polypeptide chains; also called Positive control 2
- IFN-γ release, EC50 [1]: 0.261 nM
- IFN-γ release, Maximum [1]: 658 pg/mL
- IL-2 release, EC50 [1]: 0.312 nM
- IL-2 release, Maximum [1]: 25.8 pg/mL
- IL-6 release, EC50 [1]: 0.341 nM
- IL-6 release, Maximum [1]: 71.4 pg/mL
- IL-10 release, EC50 [1]: 0.335 nM
- IL-10 release, Maximum [1]: 190 pg/mL
- NCI-H929 killing, EC50 [1]: 0.115 nM
- NCI-H929 killing, Maximum killing rate % [1]: 62%
- TNF-α release, EC50 [1]: 0.224 nM
- TNF-α release, Maximum [1]: 1020 pg/mL
- binding result [2]: no binding
- IFN-γ release, EC50 [3]: 0.483 nM
- IFN-γ release, Maximum [3]: 1020 pg/mL
- IL-2 release, EC50 [3]: 2.27 nM
- IL-2 release, Maximum [3]: 21.5 pg/mL
- IL-6 release, EC50 [3]: 13.1 nM
- IL-6 release, Maximum [3]: 245 pg/mL
- IL-10 release, EC50 [3]: 0.861 nM
- IL-10 release, Maximum [3]: 583 pg/mL
- NCI-H929 killing, EC50 [3]: 0.16 nM
- NCI-H929 killing, Maximum killing rate % [3]: 61.2%
- TNF-α release, EC50 [3]: 0.464 nM
- TNF-α release, Maximum [3]: 608 pg/mL
- Killing EC50 (nM), PBMC + NCI-H929, + 62.5 ng/ml sBCMA [4]: 0.8 nM
- Killing EC50 (nM), PBMC + NCI-H929, + 125 ng/ml sBCMA [4]: 1 nM
- Killing EC50 (nM), PBMC + NCI-H929, + 250 ng/ml sBCMA [4]: 3.5 nM
- Killing EC50 (nM), PBMC + NCI-H929, + 500 ng/ml sBCMA [4]: 7.7 nM
- Killing EC50 (nM), PBMC + NCI-H929, no sBCMA [4]: 0.2 nM
- Maximum MFI [5]: 6850 MFI
- Killing EC50 (nM), PBMC + NCI-H929, + 10 ng/mL sBAFF [6]: 0.063 nM
- Killing EC50 (nM), PBMC + NCI-H929, + 10 ng/ml sAPRIL [6]: 0.096 nM
- Killing EC50 (nM), PBMC + NCI-H929, + 100 ng/mL sBAFF [6]: 0.076 nM
- Killing EC50 (nM), PBMC + NCI-H929, + 100 ng/ml sAPRIL [6]: 0.253 nM
- Killing EC50 (nM), PBMC + NCI-H929, no soluble ligand [6]: 0.103 nM
- Maximum MFI [7]: 1110 MFI
- Kd [8]: 0.0452 nM
- koff [8]: 2.46e-05 s⁻¹
- kon [8]: 545000 M⁻¹ s⁻¹
